B11: mouse IFN-gamma (ligand, UniProt P01580 23-155, looked up)
chain: HGTVIESLESLNNYFNSSGIDVEEKSLFLDIWRNWQKDGDMKILQSQIISFYLRLFEVLKDNQAISNNISVIESHLITTFFSNSKAKKDAFMSIAKFEVNNPQVQRQAFNELIRVVHQLLPESSLRKRKRSRC
notes: Used biotinylated (biotinamidocaproic acid 3-sulfo N-hydroxysuccinimide ester) in the assays; also called mouse IFN-γ; biotinylated mouse IFN-γ

Columns and labels:
human IFN-gamma [1] = biological target: T1, human IFN-gamma (human, UniProt P01579 24-166); assay: cell-based or functional assay
T1 sequence (looked up): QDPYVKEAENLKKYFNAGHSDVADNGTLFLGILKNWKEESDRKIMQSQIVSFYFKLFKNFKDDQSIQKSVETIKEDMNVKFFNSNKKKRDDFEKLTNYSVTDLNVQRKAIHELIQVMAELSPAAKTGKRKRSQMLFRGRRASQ

mouse IFN-gamma = biological target: B11; assay: ELISA screening of selected clones on captured biotinylated mouse IFN-γ (Examples 7 and 8)
Description: To examine the clones selected using biotinylated human or mouse IFN-γ, wells were coated with neutravidine at a concentration of 2 μg/ml overnight at 4° C. Plates were washed 5 times with PBS/0.05% Tween-20. Wells were blocked with 1% caseine for 2 hrs at room temperature. Biotinylated mouse or human IFN-γ at a concentrabon of 1 μg/ml was captured overnight at 4° C. Plates were washed 5 times with PBS/0.05% Tween-20. Culture supernatant (⅓ diluted) was applied to the wells. Detection was performed using anti-c-myc antibody, followed by anti-mouse-HRP and ABTS/H₂O₂ as substrate. Plates were read at 405 nm after 30 minutes incubation at room temperature.

human IFN-gamma [2] = biological target: T1, human IFN-gamma; assay: competition ELISA: VHH pre-incubated with biotinylated human IFN-γ, coated human IFN-γ receptor
Description: Mouse or human IFN-γ receptor was coated at a concentration of 1-2 μg/ml overnight at 4° C. Plates were washed 5 times with PBS/0.05% Tween-20. Wells were blocked with 1% caseine overnight at 4° C. VHH was pre-incubated with 20 ng biotinylated human or mouse IFN-γ for 30 minutes at room temperature. The mixture was applied to the wells and incubated for 1 hr at room temperature. Detection was performed using Extravidin-AP and pNPP as substrate. Plates were read at 405 nm after 30 minutes incubation at room temperature. Abcam AB 7812 polyclonal antibody was used as a positive control showing a dosis-dependent inhibition of human IFN-γ/IFN-γ receptor as presented in FIG. 7.
As presented in Table 6, a dose-dependent inhibition assay to determine the IC50 was performed for representative clones of each sequence family.

[3] = biological target: T2, mouse IFN-γ receptor (IFN-γ R1/Fc) (mouse, UniProt P15261 26-253, limits assumed); assay: ELISA: biotinylated mouse IFN-γ on coated mouse IFN-γ R1/Fc, Extravidin-AP
T2 construct: Bought Fc fusion, coated on plates; not shown: Fc part of the bought fusion; not described
T2 sequence (looked up): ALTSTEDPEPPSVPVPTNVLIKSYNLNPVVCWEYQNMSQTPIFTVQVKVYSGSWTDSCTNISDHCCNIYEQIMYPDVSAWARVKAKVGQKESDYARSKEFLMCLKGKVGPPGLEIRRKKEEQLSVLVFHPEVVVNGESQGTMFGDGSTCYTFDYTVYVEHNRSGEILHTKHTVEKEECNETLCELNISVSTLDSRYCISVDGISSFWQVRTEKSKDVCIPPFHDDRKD
Description: 96-well microtiter plates were coated with human IFN-γ receptor (IFN-γ R1 (R&D Systems, Cat Nr: 673-IR/CF) or mouse IFN-γ receptor (IFN-γ R1/Fc (R&D Systems, Cat Nr:1026-GR) at 1 μg/ml in PBS overnight at 4° C. Plates were washed 5 times with PBS/0.05% Tween-20. Plates were blocked for 2 hrs at room temperature using PBS+1% Caseine. A dilution serie of biotinylated human or mouse IFN-γ was incubated for 1 hr at room temperature. Plates were washed 5 times with PBS/0.05% Tween-20. Binding was detected using Extravidin-AP and pNPP. Plates were read at 405 nm after 30 minutes incubation at room temperature.

B1: MP2F6SR/MP2F6SR (VHH)
chain: QVKLEESGGGLVQAGGSLRLSCAASGRTFNNYNMGWFRQAPGKEREFVAAISWNGGSTYYDDSVKGRFTISRDNANNLVYLQMNSLNFEDTAVYYCACAANPYGIPQYRENRYDFWGQGTQVTVSSEPKTPKPQPAAAQVKLEESGGGLVQAGGSLRLSCAASGRTFNNYNMGWFRQAPGKEREFVAAISWNGGSTYYDDSVKGRFTISRDNANNLVYLQMNSLNFEDTAVYYCACAANPYGIPQYRENRYDFWGQGTQVTVSS
Human IFN-gamma [1]
  IC50 (nM), cell-based inhibition assay (FS4 cells treated with IFN-γ pre-incubated with VHH, EMC virus, MTT): 0.15 nM

B2: MP6 B12 BR (VHH)
VHH: QVQLQESGGGLVQAGGSLRLSCAASGFTFDDYDIGWFRQAPGKEREEVSCISNIDGSTYYADSVKGRFTISSDNAKNTAYLQMSSLKPEDTAVYYCAADIYVRCVHGLSPGYWGQGIQVTVSS
notes: Llama VHH selected on mouse IFN-γ
Mouse IFN-gamma
  binding result: binds

B3: MP3B1SRA (VHH)
VHH: QVQLQESGGGLVQPGGSLRLSCAASGFTSSNYAMSWVRQAPGKGLEWVSSINSRTGSITYADSVKGRFTITLDNAKNTLYLQMNSLKPEDTAVYYCASRVDDRVSRGQGTQVTVSS
Human IFN-gamma [1]
  IC50 (nM), cell-based inhibition assay (FS4 cells treated with IFN-γ pre-incubated with VHH, EMC virus, MTT): 9000 nM
Human IFN-gamma [2]
  IC50: 20 µg/mL

B4: MP4C10SR (VHH)
VHH: QVQLQESGGGLVQPGGSLRLSCAASGFTVSNYAMSWVRQPPGKGIEWVSSINNRNDHITYADSVKGRFTIARDNANNILYLQMNSLKPEDTAVYYCASRVDDRVSRGQGTQVTVSS
Human IFN-gamma [1]
  IC50 (nM), cell-based inhibition assay (FS4 cells treated with IFN-γ pre-incubated with VHH, EMC virus, MTT): 200000 nM
Human IFN-gamma [2]
  IC50: > 200 µg/mL

B5: MP3D2BR (VHH)
VHH: QVQLQESGGGLVQPGESLRLSCAASRGIFRFNAGGWYRQAPGKQRELVAFIGVDNTTRYIDSVKGRFTISRDNAKTTVYLQMNSLQPEDTAVYYCNKVPYIDWGQGTQVTVSS
Human IFN-gamma [1]
  IC50 (nM), cell-based inhibition assay (FS4 cells treated with IFN-γ pre-incubated with VHH, EMC virus, MTT): 9000 nM
Human IFN-gamma [2]
  IC50: 4 µg/mL

B6: MP3C7SRA (VHH)
VHH: QVQLQESGGGLVQAGDSLRLSCAASGRSFSSYGMGWFRQAPGKEHEFVAGIWRSGVSLYYADSVKGRFTISRDDAKMTVSLQMNSLKPEDTAVYYCAAEATFPTWNRGRFADYDYSGQGTQVTVSS
Human IFN-gamma [1]
  IC50 (nM), cell-based inhibition assay (FS4 cells treated with IFN-γ pre-incubated with VHH, EMC virus, MTT): 7500 nM
Human IFN-gamma [2]
  IC50: > 200 µg/mL

B7: MP6 B1 BR (VHH)
VHH: QVQLQESGGGLVQAGGSLRLSCAASGFTSDDYAIGWFRQAPGKEREGVSCISSSDGVTYYADSVKGRFTISSDNAKNTVYLQMNSLKPEDTAVYYCAADSLPLCFSGSYYHPYEYDYLGQGTQVTVSS
notes: as for B2
Mouse IFN-gamma
  binding result: binds

B8: MP2F1BR (VHH)
VHH: AVQLVESGGGLVQTGDSLRLSCVASGGTFSRYAMGWFRQAPGKEREFVARIGYSGRSISYATSVEGRFAISRDNAKNTVYLQMNSLKPEDTAVYYCASLVSGTLYQADYWGQGTQVTVSS
Human IFN-gamma [1]
  IC50 (nM), cell-based inhibition assay (FS4 cells treated with IFN-γ pre-incubated with VHH, EMC virus, MTT): 5000 nM
Human IFN-gamma [2]
  IC50: 8 µg/mL

B9: MP6 C11 BR (VHH)
VHH: QVQLQESGGGLVQAGGSLRLSCAASGRTFSTYAMGWFRQAPGKEREFVAGITSSGGYTYYADSVKGRFTISRDNAKNTVYLQMNSLKPEDTAVYYCAAGFRVGIALDLKGRYDYWGQGTQVTVSS
notes: as for B2
Mouse IFN-gamma
  binding result: binds

B10: MP6 D6 BR (VHH)
VHH: QVQLQESGGGLVQAGGSLRLSCAVSGSIFSLLAMGWFRQAPGKERELVASVSTHSNTNYADSVKGRFTISRDNAKNTVYLQMNSLKPEDTAVYYCNAGGRYSARVYWGQGTQVTVSS
notes: as for B2
Mouse IFN-gamma
  binding result: binds

## B11
[3]
  binding result: binds

B12: MP3A7SRA (VHH)
VHH: QVQLQDSGGGLVQAGGSLRLSCAASGRTFSSFRMGWFRRAPGEEREFVAFVRSNGTSTYYADSVEGRFTITRDNAKNTVYLRMDSLKPEDTAVYYCAAATRDYGGSFDYWGQGTQVIVSS
Human IFN-gamma [1]
  IC50 (nM), cell-based inhibition assay (FS4 cells treated with IFN-γ pre-incubated with VHH, EMC virus, MTT): 9000 nM
Human IFN-gamma [2]
  IC50: 5 µg/mL

B13: MP6 A8 BR (VHH)
VHH: QVQLQESGGGLVQAGGSLRLSCAASGFTFDDYAIGWFRQAPGKELEGVSMINSGGGSTYYADSVKGRFTISSDNAKNTVYLQMNSLKPEDTAVYYCAADQNARLFRLWVVTGTGPVDNALDAWGQGTLVTVSS
notes: as for B2
Mouse IFN-gamma
  binding result: binds

B14: MP2F6SR (VHH)
VHH: QVKLEESGGGLVQAGGSLRLSCAASGRTFNNYNMGWFRQAPGKEREFVAAISWNGGSTYYDDSVKGRFTISRDNANNLVYLQMNSLNFEDTAVYYCACAANPYGIPQYRENRYDFWGQGTQVTVSS
Human IFN-gamma [1]
  IC50 (nM), cell-based inhibition assay (FS4 cells treated with IFN-γ pre-incubated with VHH, EMC virus, MTT): 1500 nM
Human IFN-gamma [2]
  IC50: 1.75 µg/mL

B15: MP3C1SR (VHH)
VHH: QVQLQDSGGGLVQAGGSLRLSCAAAGISGSVFSRTPMGWYRQAPGKQRELVAGILSSGATVYAESVKGRFTISRDNAKNTVYLQMNSLSPEDTAEYYCNTYPTWVLSWGQGTQVTVSS
Human IFN-gamma [1]
  IC50 (nM), cell-based inhibition assay (FS4 cells treated with IFN-γ pre-incubated with VHH, EMC virus, MTT): 9000 nM
Human IFN-gamma [2]
  IC50: > 200 µg/mL

B16: MP3F1SRA (VHH)
VHH: QVQLQESGGGLVQAGGSLTLSCVASGRTISDYAVGWFRQAPGKEREFVASISWGGGFTAFADSMKGRFTISRDNAKNTVYLQTHTLEPDDTSVYYCASSRRYCTGYRCYATASEFDSWGQGTQVTVSS
Human IFN-gamma [1]
  IC50 (nM), cell-based inhibition assay (FS4 cells treated with IFN-γ pre-incubated with VHH, EMC virus, MTT): 9000 nM
Human IFN-gamma [2]
  IC50: 8 µg/mL

B17: MP6 B10 BR (VHH)
VHH: QVQLQDSGGGLVQLGGSLRLSCAISGRILGSYAVGWFRQAPGKERQFVAAIGWSYGNTYYADSVKGRFTISRDNAKNTVYLQINSLKPEDTAVYYCAAGDTYLTGRPNEYAYWGQGTQVTVSS
notes: as for B2
Mouse IFN-gamma
  binding result: binds

Source: US20060034833A1 (published 2006)
